# Test results taken from patent US20160311887A1 (CAMBRIDGE ENTERPRISE, published 2016).
# Read-outs that look alike come from different tables or passages of the source.
# Legend:
# [1] = target: T1, activated Protein C (APC) (human, UniProt P04070 43-197; P04070 212-461); test: ratio of rate constants, APC over thrombin
# T1 construct: also called human plasma APC
# Experimental: Standard errors are shown.
# (§1) Preliminary second-order rate constants for the inhibition of thrombin and APC by random mutagenesis PCI variants were measured under pseudo first-order conditions using an excess of serpin over protease. Serpin and protease were incubated together for varying lengths of time and the residual activity determined by adding an excess of chromogenic substrate for the protease. Plots of residual protease activity over time gave the observed rate constant kobs. The second-order rate constant, k₂, is the slope of the plot of kobs versus serpin concentration (fitted using a linear regression model). WT and P2KP1′K are shown for comparison. The error shown is the standard error of the slope.
# thrombin [2] = target: T2, thrombin (UniProt P00734 328-622); test: preliminary pseudo-first-order inhibition kinetics, residual chromogenic activity
# Experimental: as §1
# [3] = target: T1, activated Protein C (APC); test: as above
# Experimental: as §1
# TF:fVIIa = TF:fVIIa (UniProt P13726 33-295; P08709 61-466, limits assumed); test: cell-based or functional assay
# Chain of TF:fVIIa (P13726 33-295 limits assumed, chain 1 of 2): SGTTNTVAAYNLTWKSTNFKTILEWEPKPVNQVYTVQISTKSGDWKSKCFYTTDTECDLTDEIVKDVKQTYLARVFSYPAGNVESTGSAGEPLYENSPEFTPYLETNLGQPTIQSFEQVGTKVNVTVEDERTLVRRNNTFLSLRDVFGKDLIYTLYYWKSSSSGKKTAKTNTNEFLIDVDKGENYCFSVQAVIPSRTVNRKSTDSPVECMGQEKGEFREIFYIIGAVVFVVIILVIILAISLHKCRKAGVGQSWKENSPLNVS
# Chain of TF:fVIIa (P08709 61-466 limits assumed, chain 2 of 2): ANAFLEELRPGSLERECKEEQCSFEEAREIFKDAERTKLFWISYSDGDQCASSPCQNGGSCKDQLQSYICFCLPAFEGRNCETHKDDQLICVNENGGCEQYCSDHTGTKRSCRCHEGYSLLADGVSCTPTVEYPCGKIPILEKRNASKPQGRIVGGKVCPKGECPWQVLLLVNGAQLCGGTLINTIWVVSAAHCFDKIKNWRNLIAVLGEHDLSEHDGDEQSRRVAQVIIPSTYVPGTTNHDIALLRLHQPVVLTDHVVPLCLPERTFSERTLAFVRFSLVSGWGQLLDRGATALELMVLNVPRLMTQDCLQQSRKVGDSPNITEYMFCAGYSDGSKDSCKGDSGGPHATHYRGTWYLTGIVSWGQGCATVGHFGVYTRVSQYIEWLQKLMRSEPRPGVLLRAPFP
# [4] = target: T1, activated Protein C (APC); test: ratio of rate constants, APC over fXa
# [5] = target: T1, activated Protein C (APC); test: ratio of rate constants, APC over thrombin; remark: listed apart in the source
# thrombin [6] = target: T2, thrombin; test: pseudo-first-order inhibition kinetics, residual chromogenic activity
# [7] = target: T1, activated Protein C (APC); test: as above
# fXa = target: T3, fXa (UniProt P00742 41-179; P00742 235-488); test: pseudo-first-order inhibition kinetics, residual chromogenic activity (S2222)
# T3 construct: also called factor Xa
# T3 sequence (P00742 41-179 limits assumed, form in doubt, chain 1 of 2): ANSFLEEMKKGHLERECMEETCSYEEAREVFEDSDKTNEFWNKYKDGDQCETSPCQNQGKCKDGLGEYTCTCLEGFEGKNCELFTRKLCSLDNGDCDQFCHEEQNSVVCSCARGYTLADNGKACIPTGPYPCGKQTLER
# T3 sequence (P00742 235-488 limits assumed, form in doubt, chain 2 of 2): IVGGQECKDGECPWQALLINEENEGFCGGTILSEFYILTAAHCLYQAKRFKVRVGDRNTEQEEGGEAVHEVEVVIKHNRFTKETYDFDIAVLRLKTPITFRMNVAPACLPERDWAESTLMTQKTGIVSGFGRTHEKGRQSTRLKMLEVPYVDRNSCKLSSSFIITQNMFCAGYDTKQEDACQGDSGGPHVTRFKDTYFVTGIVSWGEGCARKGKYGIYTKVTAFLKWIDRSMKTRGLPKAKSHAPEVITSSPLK
# T1 sequence (P04070 43-197, chain 1 of 2): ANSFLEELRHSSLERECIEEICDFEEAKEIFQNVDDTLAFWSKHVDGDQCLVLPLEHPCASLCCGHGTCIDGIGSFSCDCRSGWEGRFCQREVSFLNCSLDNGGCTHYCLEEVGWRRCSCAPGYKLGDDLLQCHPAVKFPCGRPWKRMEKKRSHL
# T1 sequence (P04070 212-461, chain 2 of 2): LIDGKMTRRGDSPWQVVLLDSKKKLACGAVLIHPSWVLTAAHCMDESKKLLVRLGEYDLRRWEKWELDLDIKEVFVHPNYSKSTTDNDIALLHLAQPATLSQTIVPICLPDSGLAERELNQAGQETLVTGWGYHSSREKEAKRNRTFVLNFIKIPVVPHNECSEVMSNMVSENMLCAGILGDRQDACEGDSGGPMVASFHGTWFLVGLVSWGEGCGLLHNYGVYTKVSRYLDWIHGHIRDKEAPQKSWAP
binder,measurement,setting,value
"A22 2.B10 PCI (P4SP2LP1′K) (other, As A22 WT PCI) APSSRRDFTFDLYRALASAAPSQNIFFSPVSISMSLAMLSLGAGSSTKMQILEGLGLNLQKSSEKELHRGFQQLLQELNQPRDGFQLSLGNALFTDLVVDLQDTFVSAMKTLYLADTFPTNFRDSAGAMKQINDYVAKQTKGKIVDLLKNLDSNAVVIMVNYIFFKAKWETSFNHKGTQEQDFYVTSETVVRVPMMSREDQYHYLLDRNLSCRVVGVPYQGNATALFILPSEGKMQQVENGLSEKTLRKWLKMFKKRQLELYLPKFSIEGSYQLEKVLPSLGISNVFTSHADLSGISNHSNIQVSEMVHKAVVEVDESGTRAAAATGTISTLRKARLNSQRLVFNRPFLMFIVDNNILFLGKVNRP",inhibition of APC/thrombin,[1],26.9 fold
same,second-order rate constant of inhibition,thrombin [2],16 M⁻¹ s⁻¹
same,second-order rate constant of inhibition,[3],430 M⁻¹ s⁻¹
"FL α1AT Pitts C232S P2KP1′N (other, E. coli, purified; also called 3.B2; 2.H5) SDPQGDAAQKTDTSHHDQDHPTFNKITPNLAEFAFSLYRQLAHQSNSTNIFFSPVSIATAFAMLSLGTKADTHDEILEGLNFNLTEIPEAQIHEGFQELLRTLNQPDSQLQLTTGNGLFLSEGLKLVDKFLEDVKKLYHSEAFTVNFGDTEEAKKQINDYVEKGTQGKIVDLVKELDRDTVFALVNYIFFKGKWERPFEVKDTEEEDFHVDQVTTVKVPMMKRLGMFNIQHSKKLSSWVLLMKYLGNATAIFFLPDEGKLQHLENELTHDIITKFLENEDRRSASLHLPKLSITGTYDLKSVLGQLGITKVFSNGADLSGVTEEAPLKLSKAVHKAVLTIDEKGTEAAGAMFLEAIKRNIPPEVKFNKPFVFLMIEQNTKSPLFMGKVVNPTQK","PT (s), 5 µM serpin",TF:fVIIa,27.8 s
same,inhibition of APC/fXa,[4],41.5 fold
same,inhibition of APC/thrombin,[5],2520 fold
same,second-order rate constant of inhibition,thrombin [6],15 M⁻¹ s⁻¹
same,second-order rate constant of inhibition,[7],37800 M⁻¹ s⁻¹
same,second-order rate constant of inhibition,fXa,910 M⁻¹ s⁻¹
"FL α1AT Pitts C232S P2TP1′N (other, E. coli, purified; also called 4.G9) SDPQGDAAQKTDTSHHDQDHPTFNKITPNLAEFAFSLYRQLAHQSNSTNIFFSPVSIATAFAMLSLGTKADTHDEILEGLNFNLTEIPEAQIHEGFQELLRTLNQPDSQLQLTTGNGLFLSEGLKLVDKFLEDVKKLYHSEAFTVNFGDTEEAKKQINDYVEKGTQGKIVDLVKELDRDTVFALVNYIFFKGKWERPFEVKDTEEEDFHVDQVTTVKVPMMKRLGMFNIQHSKKLSSWVLLMKYLGNATAIFFLPDEGKLQHLENELTHDIITKFLENEDRRSASLHLPKLSITGTYDLKSVLGQLGITKVFSNGADLSGVTEEAPLKLSKAVHKAVLTIDEKGTEAAGAMFLEAITRNIPPEVKFNKPFVFLMIEQNTKSPLFMGKVVNPTQK",inhibition of APC/thrombin,[5],231 fold
same,second-order rate constant of inhibition,thrombin [6],270 M⁻¹ s⁻¹
same,second-order rate constant of inhibition,[7],62400 M⁻¹ s⁻¹
"FL α1AT Pitts C232S P2RP1′C (other, E. coli, purified; also called 1.B11) SDPQGDAAQKTDTSHHDQDHPTFNKITPNLAEFAFSLYRQLAHQSNSTNIFFSPVSIATAFAMLSLGTKADTHDEILEGLNFNLTEIPEAQIHEGFQELLRTLNQPDSQLQLTTGNGLFLSEGLKLVDKFLEDVKKLYHSEAFTVNFGDTEEAKKQINDYVEKGTQGKIVDLVKELDRDTVFALVNYIFFKGKWERPFEVKDTEEEDFHVDQVTTVKVPMMKRLGMFNIQHSKKLSSWVLLMKYLGNATAIFFLPDEGKLQHLENELTHDIITKFLENEDRRSASLHLPKLSITGTYDLKSVLGQLGITKVFSNGADLSGVTEEAPLKLSKAVHKAVLTIDEKGTEAAGAMFLEAIRRCIPPEVKFNKPFVFLMIEQNTKSPLFMGKVVNPTQK",inhibition of APC/thrombin,[5],722 fold
same,second-order rate constant of inhibition,thrombin [6],34 M⁻¹ s⁻¹
same,second-order rate constant of inhibition,[7],24600 M⁻¹ s⁻¹
"FL α1AT Pitts C232S P2KP1′H (other, E. coli, purified; also called 1.A12) SDPQGDAAQKTDTSHHDQDHPTFNKITPNLAEFAFSLYRQLAHQSNSTNIFFSPVSIATAFAMLSLGTKADTHDEILEGLNFNLTEIPEAQIHEGFQELLRTLNQPDSQLQLTTGNGLFLSEGLKLVDKFLEDVKKLYHSEAFTVNFGDTEEAKKQINDYVEKGTQGKIVDLVKELDRDTVFALVNYIFFKGKWERPFEVKDTEEEDFHVDQVTTVKVPMMKRLGMFNIQHSKKLSSWVLLMKYLGNATAIFFLPDEGKLQHLENELTHDIITKFLENEDRRSASLHLPKLSITGTYDLKSVLGQLGITKVFSNGADLSGVTEEAPLKLSKAVHKAVLTIDEKGTEAAGAMFLEAIKRHIPPEVKFNKPFVFLMIEQNTKSPLFMGKVVNPTQK","PT (s), 5 µM serpin",TF:fVIIa,27.4 s
same,inhibition of APC/fXa,[4],46.5 fold
same,second-order rate constant of inhibition,[7],28800 M⁻¹ s⁻¹
same,second-order rate constant of inhibition,fXa,620 M⁻¹ s⁻¹
"FL α1AT Pitts C232S P2QP1′K (other, E. coli, purified; also called 4.G4) SDPQGDAAQKTDTSHHDQDHPTFNKITPNLAEFAFSLYRQLAHQSNSTNIFFSPVSIATAFAMLSLGTKADTHDEILEGLNFNLTEIPEAQIHEGFQELLRTLNQPDSQLQLTTGNGLFLSEGLKLVDKFLEDVKKLYHSEAFTVNFGDTEEAKKQINDYVEKGTQGKIVDLVKELDRDTVFALVNYIFFKGKWERPFEVKDTEEEDFHVDQVTTVKVPMMKRLGMFNIQHSKKLSSWVLLMKYLGNATAIFFLPDEGKLQHLENELTHDIITKFLENEDRRSASLHLPKLSITGTYDLKSVLGQLGITKVFSNGADLSGVTEEAPLKLSKAVHKAVLTIDEKGTEAAGAMFLEAIQRKIPPEVKFNKPFVFLMIEQNTKSPLFMGKVVNPTQK","PT (s), 5 µM serpin",TF:fVIIa,27.9 s
same,inhibition of APC/fXa,[4],30.9 fold
same,inhibition of APC/thrombin,[5],8790 fold
same,second-order rate constant of inhibition,thrombin [6],3.8 M⁻¹ s⁻¹
same,second-order rate constant of inhibition,[7],33400 M⁻¹ s⁻¹
same,second-order rate constant of inhibition,fXa,1080 M⁻¹ s⁻¹
"FL α1AT Pitts C232S P2R (other, E. coli, purified; also called P2.F10; P2.G8) SDPQGDAAQKTDTSHHDQDHPTFNKITPNLAEFAFSLYRQLAHQSNSTNIFFSPVSIATAFAMLSLGTKADTHDEILEGLNFNLTEIPEAQIHEGFQELLRTLNQPDSQLQLTTGNGLFLSEGLKLVDKFLEDVKKLYHSEAFTVNFGDTEEAKKQINDYVEKGTQGKIVDLVKELDRDTVFALVNYIFFKGKWERPFEVKDTEEEDFHVDQVTTVKVPMMKRLGMFNIQHSKKLSSWVLLMKYLGNATAIFFLPDEGKLQHLENELTHDIITKFLENEDRRSASLHLPKLSITGTYDLKSVLGQLGITKVFSNGADLSGVTEEAPLKLSKAVHKAVLTIDEKGTEAAGAMFLEAIRRSIPPEVKFNKPFVFLMIEQNTKSPLFMGKVVNPTQK","PT (s), 5 µM serpin",TF:fVIIa,27.8 s
same,inhibition of APC/fXa,[4],12.8 fold
same,inhibition of APC/thrombin,[5],1460 fold
same,second-order rate constant of inhibition,thrombin [6],42 M⁻¹ s⁻¹
same,second-order rate constant of inhibition,[7],61100 M⁻¹ s⁻¹
same,second-order rate constant of inhibition,fXa,4790 M⁻¹ s⁻¹
"FL α1AT Pitts C232S P2TP1′Y (other, E. coli, purified; also called 3.A10) SDPQGDAAQKTDTSHHDQDHPTFNKITPNLAEFAFSLYRQLAHQSNSTNIFFSPVSIATAFAMLSLGTKADTHDEILEGLNFNLTEIPEAQIHEGFQELLRTLNQPDSQLQLTTGNGLFLSEGLKLVDKFLEDVKKLYHSEAFTVNFGDTEEAKKQINDYVEKGTQGKIVDLVKELDRDTVFALVNYIFFKGKWERPFEVKDTEEEDFHVDQVTTVKVPMMKRLGMFNIQHSKKLSSWVLLMKYLGNATAIFFLPDEGKLQHLENELTHDIITKFLENEDRRSASLHLPKLSITGTYDLKSVLGQLGITKVFSNGADLSGVTEEAPLKLSKAVHKAVLTIDEKGTEAAGAMFLEAITRYIPPEVKFNKPFVFLMIEQNTKSPLFMGKVVNPTQK",inhibition of APC/thrombin,[5],248 fold
same,second-order rate constant of inhibition,thrombin [6],23 M⁻¹ s⁻¹
same,second-order rate constant of inhibition,[7],5700 M⁻¹ s⁻¹
"FL α1AT Pitts C232S P1′R (other, E. coli, purified; also called P1′.A11) SDPQGDAAQKTDTSHHDQDHPTFNKITPNLAEFAFSLYRQLAHQSNSTNIFFSPVSIATAFAMLSLGTKADTHDEILEGLNFNLTEIPEAQIHEGFQELLRTLNQPDSQLQLTTGNGLFLSEGLKLVDKFLEDVKKLYHSEAFTVNFGDTEEAKKQINDYVEKGTQGKIVDLVKELDRDTVFALVNYIFFKGKWERPFEVKDTEEEDFHVDQVTTVKVPMMKRLGMFNIQHSKKLSSWVLLMKYLGNATAIFFLPDEGKLQHLENELTHDIITKFLENEDRRSASLHLPKLSITGTYDLKSVLGQLGITKVFSNGADLSGVTEEAPLKLSKAVHKAVLTIDEKGTEAAGAMFLEAIPRRIPPEVKFNKPFVFLMIEQNTKSPLFMGKVVNPTQK",inhibition of APC/thrombin,[5],194 fold
same,second-order rate constant of inhibition,thrombin [6],680 M⁻¹ s⁻¹
same,second-order rate constant of inhibition,[7],132000 M⁻¹ s⁻¹
"FL α1AT Pitts C232S P1′E (other, E. coli, purified; also called P1′.H8; P1′.F10) SDPQGDAAQKTDTSHHDQDHPTFNKITPNLAEFAFSLYRQLAHQSNSTNIFFSPVSIATAFAMLSLGTKADTHDEILEGLNFNLTEIPEAQIHEGFQELLRTLNQPDSQLQLTTGNGLFLSEGLKLVDKFLEDVKKLYHSEAFTVNFGDTEEAKKQINDYVEKGTQGKIVDLVKELDRDTVFALVNYIFFKGKWERPFEVKDTEEEDFHVDQVTTVKVPMMKRLGMFNIQHSKKLSSWVLLMKYLGNATAIFFLPDEGKLQHLENELTHDIITKFLENEDRRSASLHLPKLSITGTYDLKSVLGQLGITKVFSNGADLSGVTEEAPLKLSKAVHKAVLTIDEKGTEAAGAMFLEAIPREIPPEVKFNKPFVFLMIEQNTKSPLFMGKVVNPTQK",inhibition of APC/thrombin,[5],19.9 fold
same,second-order rate constant of inhibition,thrombin [6],150 M⁻¹ s⁻¹
same,second-order rate constant of inhibition,[7],2990 M⁻¹ s⁻¹
